US8709506B2, “Synergistic compositions for the treatment of topical viral infections” (Vitro Bio Sarl, priority 2010, dated 2014)

Assays:
influenza virus = type: cell-based; settings: for % cell death after 72 h TCID50 influenza virus infection: protease 0.5 μg/ml, MDCK cells, serum free medium, virus control 48.21 ± 6.77
herpes virus = type: cell-based; settings: for % cell death after 72 h TCID50 herpes virus infection: protease 0.5 μg/ml, Vero cells, serum free medium, virus control 56.0 ± 2.3

Molecule | % increase in influenza viral growth compared to virus control (influenza virus) | % cell death after 72 h TCID50 influenza virus infection (influenza virus) [%] | % increase in herpes virus growth compared to controls (herpes virus) | % cell death after 72 h TCID50 herpes virus infection (herpes virus) [%]
MMP-2: purified human MMP 2 (gelatinase A), AnaSpec (protein, UniProt P08253 110-660, looked up) 72 kDa type IV collagenase: YNFFPRKPKWDKNQITYRIIGYTPDLDPETVDDAFARAFQVWSDVTPLRFSRIHDGEADIMINFGRWEHGDGYPFDGKDGLLAHAFAPGTGVGGDSHFDDDELWTLGEGQVVRVKYGNADGEYCKFPFLFNGKEYNSCTDTGRSDGFLWCSTTYNFEKDGKYGFCPHEALFTMGGNAEGQPCKFPFRFQGTSYDSCTTEGRTDGYRWCGTTEDYDRDKKYGFCPETAMSTVGGNSEGAPCVFPFTFLGNKYESCTSAGRSDGKMWCATTANYDDDRKWGFCPDQGYSLFLVAAHEFGHAMGLEHSQDPGALMAPIYTYTKNFRLSQDDIKGIQELYGASPDIDLGTGPTPTLGPVTPEICKQDIVFDGIAQIRGEIFFFKDRFIWRTVTPRDKPMGPLLVATFWPELPEKIDAVYEAPQEEKAVFFAGNEYWIYSASTLERGYPKPLTSLGLPPDVQRVDAAFNWSKNKKTYIFAGDKFWRYNEVKKKMDPGFPKLIADAWNAIPDNLDAVVDLQGGGHSYFFKGAYYLKLENQSLKSVKFGSIKSDWLGC | +49.14% | 71.90 ± 8.21 | +31.43% | 73.6 ± 6.20
MMP-12: purified human MMP-12 (elastase), AnaSpec (protein, UniProt P39900 106-470, looked up) Macrophage metalloelastase: GPVWRKHYITYRINNYTPDMNREDVDYAIRKAFQVWSNVTPLKFSKINTGMADILVVFARGAHGDFHAFDGKGGILAHAFGPGSGIGGDAHFDEDEFWTTHSGGTNLFLTAVHEIGHSLGLGHSSDPKAVMFPTYKYVDINTFRLSADDIRGIQSLYGDPKENQRLPNPDNSEPALCDPNLSFDAVTTVGNKIFFFKDRFFWLKVSERPKTSVNLISSLWPTLPSGIEAAYEIEARNQVFLFKDDKYWLISNLRPEPNYPKSIHSFGFPNFVKKIDAAVFNPRFYRTYFFVDNQYWRYDERRQMMDPGYPKLITKNFQGIGPKIDAVFYSKNKYYYFFQGSNQFEYDFLLQRITKTLKSNSWFGC | +1.41% | 48.89 ± 4.39 | +19.86% | 67.12 ± 5.91
